From the nanobody polyreactivity screen of Harvey et al. (2022)

Experiment: yeast display, Sf9 membrane polyspecificity reagent, FACS + sequencing; frameworks hold sequencing errors
Summary of the method: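 After 36–48 hours of galactose induction, yeast (Saccharomyces cerevisiae BJ5465) displaying a synthetic nanobody library were stained at 4 °C for 1 hour with 10% biotinylated, detergent-solubilized Sf9 membrane reagent. Streptavidin microbeads enriched the stained cells before FACS sorting into low and high (top ~1%) gates on anti-HA and streptavidin fluorescence. Each clone's polyreactivity label reflects its gate of origin.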

Sequence	polyreactivity (PSR sort gate)
QVQLVESGGGLVQAGGSLRLSCAASGRTFRVNAMGWYRQAPGKERELVAAITWNGGSTYYADSVKGRFTISRDNAKNTVYLQMNSLKPEDTAVYYCAAKGARYTSRGYYWGQGTQVTVSS	high polyreactivity
QVQLEESGGGLVQAGGSHRLSCAASGIIFSKYAMGWYRPAPGKEREFGAAISQRGGRTYYADSVKGRFTISRDNAKNTVYLQMNSLNTEDTAVYYCAATGTGGVYPLDYGGQGTQVTVSS	high polyreactivity
QVQLVESGGGLVQAGGSLRLSCAASGRTFYYNAMGWYRQAPGKERELVARITSSGGSTYYADSVKGRFTISRDNAKSTVYLQMNSLKPEDTAVSYCAAGRSRYLWFGRDFDYWGQGTQVTVSS	low polyreactivity
QVQLVESGGGLVQAGGSLRLSCAASGFIFYSYGMGWYRQAPGKERELVASITSSGTRTYYADSVKGRFTISRDNAKHTVYLQMNSLKPEDTAVYYCAASRFYYGIAYYRYDYWGQGTHVTVSS	high polyreactivity
QDPLEESGGGLVQAGGSLRLSCAASGFTFTDYAMGWTRQAPGKERQLVAVISRSGGSTNYADSVKGRFTISRDKAKNTVYLQMNCLKPEDTAVYYCNAGKYLYRHGFLSSGDMYYWGQGTQVTVSS	high polyreactivity
QVQLVESGGGLVQAGGSLRLSCAASGSTFFSYAMGWYRQAPGKEREFVAAISWIDDGTYYADSVKGRFTISRDNAKNTVYLQMNSLKPEDTAVYYCAADIGAYRTWDYEYWGQGTQVTVSS	low polyreactivity
QVQLVESGGGLVQAGGSLRLSCAASGRIFTRNAMGWYRPAPGKERELVAAISSRGGSTYYADSVKGRFTISRDNAKNTVYLQMNSLKPEDTAVYYCAAGYWATYDYWGQGTQVTVSS	high polyreactivity
QVQLVESGGGLVQAGGSLRLSCAASGFIFAFYDMGWYRQAPGKERELVAAISWGGSTYYADSVKGRFTISRDNAKNTVYLQMNSLKPQDTAVYYCAARLSRSYRYGYWGQGTQVTVSS	high polyreactivity
QVQLVESGGGLVQAGGSLRLSCAASGYIFERYAMGWYRPAPGKERELVAAISSGGGRTYYADSVKGRFTISRDNAKNPVYLQMNSLQPEDTAVYYCAADHWWISSYWGQGTQVTVSS	high polyreactivity
QVQLVESGGGLVQAGGSLRLSCAASGSIFGKYAMGWYRQAPAKERELVAAISDSGSITYYADSVKGRFTISRDNAKNTVYLQMNSLKPEDTAVYYCAAEVKYYQSFKYDYWGQGTQVTVSS	high polyreactivity
QVQLVDSGGGLVQAGGSLRLSCAASGRIFYSNAMGWYRQAPGKVRELVAAITTSGASTYYADSVKGRFTISRDNAKNTVYLQLISMKPEDTAVYYCATYAVVYPFAMDYWGQGTQVTVSS	low polyreactivity
QVQLVESGGGLVQAGGSLRLSCAASGFISAGYAMGWYRQAPGKERELVAAITRTGSTNYADSVKGRFTISRDNAKNTVYLQMNSLKPEDTAVYYCAAGRRGSAGYYRQFGYGYWGQGTQVTVSS	high polyreactivity
QVQLQESGGGLVQAGGSLRLSCAASGSIFVSVTMGWYRQAPGKERELVASIGRGSTTNHADSVKGRFTISRDNAKNIVYLLMNSLKPEDTAVYSCAALESYGKYHGYWGQGTQVTVSS	low polyreactivity
QVQLVESGGGLVQAGGSLRLSCAASGSIFGDNAMGWYRQAPGKERELVAAITSSGGSTYYADSVKGRFTISRDNAKNSVYLQMNSLKPEDTAVYYCNADFGYGWYLRYDYWGLGTQVTVSS	high polyreactivity
QVQLEETVGGLVQAGGSLRLSSAATGLTFYLYVMGWYSQAHGKERELVAAISRRGGTTYYADSVKGRVTISRDKAKNTVYLQLNCLKPDDTAVYDCAADFFARTQRTFDYWGLGTQVTVSS	high polyreactivity
QVHLGDSGGGLVQAGGSLRLSCAASGRIFWTYAMGWYRQAPGKERELVAAIRWSSGSTRYADSVKGRFTISRDNAKNTVYLQLNSVKPEDTAVYYCAADAFRSQRPYTYDYWGQGTQVTVSS	high polyreactivity
QVQLVESGGGLVQAGGSLRLSCAASGRITFSHNTMGWYRQAPGKERELVAAISSGGRTNYADSVKGRFTISRDNAKNTVYLQMNSLKPEDTAVYYCARESHYDFIYDGMDYWGQGTQVTVSS	low polyreactivity
QVQLVESGGGLVQAGGSLRLSCAASGFIFYYNAMGWDRQAPGKERELVAAIDSGGRTNYADSVKGRFTISRDNAKNTVYLQMNSLKPEDTAVYYCATDPYQPYEGDYWGQGTQVTVSS	low polyreactivity
QVQLVESGGGLVQEGGSLRLSCAASGSTFHGYAMGWYRQAPGKERELVASISWSGGRTYYADSVKGRFTISRDNAKNTVYLQMNSMKPEDTAVYYCAAETGGLGGDYLGQGTQVTVSS	low polyreactivity
QVQLVESGGGLFQAGGSLRLSCAASGLTFNRYAMGWSRQAPGKERELVAAIDYSGGRTYYADSVKGRFTISRDYAKNTVYLQMNSLKPEDTAVFYCNALTRSVSRLLYDFWGQGSQVTVSS	high polyreactivity
QVQLVESGGGLDQAGGSLRLSCAASGSIFGRNAMRWYRQAPGKERELVAAITGYTYYADSVKGRFTISRDNAKNTVYLQMNSLKPEDTAVYYINADHDVGWTYDTEYNYWGQGTQVTVSS	low polyreactivity
QVQLVESGGGLVQAGGSLRLSCSASGSTFTWYAMGWYRQATGKERELVADISNGGGSTYYADSVKGRFTISRDNEKNTVYLQINSLKPEDTEVYYCAAESIPYYRYDYWGQGTQVTVSS	low polyreactivity

Sequence	polyreactivity (PSR sort gate)
QVQLVESGGGLVQAGVSLRLSCAASGSIFYEYAMGWYRQAPGKEREFVAAISSSGGSTYYADSEKGRFTISRDNAKNSVYLQMNSLKPEDTAAYYCNAQVGGVSFEYDYWGQGTQVTVSS	low polyreactivity
QVQLVESGGGLVQAGGSLRLSCAASGYTFGDYAMGWYRQAPGKERELVASITQTGGSTYADSVKGRFTISRDNAKNTVYLQMNSLKPEDTAVYYCNARYPWWESLRQTDRGKGFDYWGQGTQVTVSS	low polyreactivity
QVQLVESGGGLVQAGGSLRLSCAASVSTFYRYTMVWYRQAPGKERELVAAITYRGGTTYYADSVKGRFTISRDNAKNTVYLQMNSLKPEDTAVYYCAAYSSLGYIMNYWGQGTQVTVSS	high polyreactivity
QVQLVESGGGLVQAGGSLRLICAASGSIFPRYVMGWSRQAPGKERELVAAITRRGGSTYYADSVKGRFTISRDNAKHTVYLQMNSLKPADTAVYYCNAKYRLEMDWGQGTQVTVSS	high polyreactivity
QVQLVESGGGVVQAGGSLRLSCAASGRIFLKYTMGWYRQAPGKARELVAAISRGGSTYYADSVKGRFTISRDNAKNTVYLQMNSLKPEDTAVYYCAATSYRRTGYNYWGQGTQVTVSS	high polyreactivity
QVQLVESGGGLVQAGGRLRLSSAASGFIFWYYAMGWYRQEPGKERELVAAITSGGNTNYADSVKGRFTISRDNAKNTVYLQMNSLKPEDTAVYYCATGRASGREHDSWGQGTQVTVSS	low polyreactivity
QVQLVESGGGLVQAGGSLRLSCAASGFTFGVYTMGWYRQAPGKETELVASISWDGGSTYYADSVKGRFTISRDNAKNTVYLQMNSLKPEDTAVYYCAKGSSFYYGYDYWGQGTQVTVSS	low polyreactivity
QVQLVESGGGLVQAGGSLRLSCAASGSTFVRNAMGWYRQAPGKERELVAGITFGGGSTYYADSVKGRFTISRDIAKNTVYLQMNSLKPEDTAVYYCAADLSYRGATRGDYYWGQGTQVTVSS	low polyreactivity
QVQLVESGGGLVQAGGSLRLSRAASGGSLRLYAMRWYRQAHGKERELVSAINDRSGSTYYADSVKGRFTISRDNAKNTVYLKLNRLKPEDTAVYYCYAYGTPPGSDGQYDYWGQGTQVTVSS	high polyreactivity
QVQLVESGGGLVQAGGSLRLSCAASGSIFSGWYTMGWYRQAPWKERELVASISISTTDTYYADSVKGRFTISRDNAKNTVYVQMNSLKPEDTAVYYCAASGWDHVIVEYDYWGQGTQVTVSS	low polyreactivity
KVQLVESGGGLVQAGGSLRLSCAASGIIFNLYAMGWSRQAPGKERELVAAITSSGTSTYYADSVKGRFTISRDNAKNTLYLQMNSLKPEDTAVYYCAADRGFYYFVEYDYWGQGTQVTVSS	high polyreactivity
QVQLVESGGGLVQAGGSLRLSCAASGSTFVYNTMGWYRQAPGKERELVASISSDGNTYYADSVKGRFTISRDNAKNTVYLQMNSLKPEDTAVYYCAARYYYDWRFVGYDYWGQGTQVTVSS	low polyreactivity
QVQLVESGGGLVQAGGSLRLSCAASGFIFDPYAMGWYRQAPGKERELVARITWSGGRTYYADSVKGRFTISRDNAKNTVYLQMNSLKPEDTAVYYCNADVYGFDYWGQGTQVTVSS	high polyreactivity
QVQLVESGGGLVQAGGSLRLSCAASGRTFHYYVRGWSRQAPGKERELVAAISRSGGNTYYADSVKGRFTISRDNAKNTVYLQMNSLKPEDTAVNYCAAALSAYVKWDYYYWGQGTQVTVSS	low polyreactivity
QVQLVESGGGIVQAGGSLRLSCAASGRIFFGYAMGWYRQAPGKERELVAAITSGGSTYYADSVKGRFTISRDNAKNTDYLQMYSLKTEDTAVYYCAAVRWYGSKRYGYWGQGTQVTVSS	high polyreactivity
QVQLVESGGGLVQAGGSLRLSSDASGRIFYVYTMGWYRQAPGKEREFVAAISDSGGSTYYADSVKGRFTISRDNAKNTVYLQMNSLQTEDTAVYYCNAGYGPAAYYWYYGGYYYWGQGTQVTVSS	low polyreactivity
QVQLVESGGGLVQAGGSLRLSGAASGFTFDNNAMGWYRQAPGKEREMVAAITGRGSRTNYADSVKGRFTISRDNAKNTVYLQMNSLKPEDTAVYYCATRLWVYGEGSFDDWGQGTQVTVSS	high polyreactivity
QVQLVESGGGLVQAGGSLRLSCAASGFTFWTYAMGWYRQAPGKERELVAAISTSGGSTYYADSVKGRFTISRDNAKNTVYLQINSLKPEDTAVYYCAAYAIGEHFRARYGYWGQGTQVTVSS	high polyreactivity
QVQLVESGGGLVQAGGSLRLSCAASGGTFIMYAMGWYRQAPGKERELVASITWSGGRTYYADSVKGRFTISRDNSKNTVYLQMNSLKPEDTAVYYCNTPPSYIMDYWGQGTQVTVSS	low polyreactivity
QVQLVESGGGLVQAGGSLRLSCAASGSTFRYYAMGWYRQAPGKERELVAGITRIGGRTYYADSVKGRFTISRDNAKNTVDLQMNSLKPEDTAVYYCAADYGGFLGYDYWGQGTQVTLSS	high polyreactivity
QDQLVESGGGIVQAGGILRLSCASSGFIFRGYAMGWYRQAPGKEWELVAAINSGDSTNYADSVKGRFTISRDNAKNTVSLQMNSLKREDTAVYYCAASIYAALNGGEGYDYWGQGTQVTVSS	low polyreactivity
